Laboratory results from US20100255578A1.
Like-named read-outs stand apart in the source and are kept apart here.

What was measured:
[1] = molecular target: CH-296, a polypeptide comprising a cell binding domain, a heparin binding domain and a CS-1 domain of fibronectin (Homo sapiens (Human)) (UniProt P02751); experiment: ELISA; CH-296 coated at 25 ug/mL; HRP-labeled FNH3-8, ABTS; blank subtracted
[2] = molecular target: CH-296, a polypeptide comprising a cell binding domain, a heparin binding domain and a CS-1 domain of fibronectin (Homo sapiens (Human)) (UniProt P02751); experiment: as above; remark: listed apart in the source
H296-H271 [3] = experiment: ELISA; H296-H271 coated at 9 ug/mL; HRP-labeled FNH3-8, ABTS; blank subtracted
H271-H296 [4] = experiment: ELISA; H271-H296 coated at 14 ug/mL; HRP-labeled FNH3-8, ABTS; blank subtracted
H271-H296 [5] = experiment: ELISA; H271-H296 coated at 18 ug/mL; HRP-labeled FNH3-8, ABTS; blank subtracted
H296-H271 [6] = experiment: ELISA; H296-H271 coated at 13 ug/mL; HRP-labeled FNH3-8, ABTS; blank subtracted
H296-H296-HT [7] = experiment: ELISA; H296-H296-HT coated at 1 ug/mL; HRP-labeled FNH3-8, ABTS; blank subtracted
H296-H296-HT [8] = experiment: ELISA; H296-H296-HT coated at 3 ug/mL; HRP-labeled FNH3-8, ABTS; blank subtracted
H296-H296-HT [9] = experiment: ELISA; H296-H296-HT coated at 4 ug/mL; HRP-labeled FNH3-8, ABTS; blank subtracted
[10] = molecular target: H296-H296 (modified fibronectin fragment in which two H-296's are connected); experiment: ELISA as in Example 34; H296-H296 coated at 1.563 ug/mL in PBS; HRP-labeled FNH3-8
H296-H296-H296-HT [11] = experiment: ELISA; H296-H296-H296-HT coated at 1 ug/mL; HRP-labeled FNH3-8, ABTS; blank subtracted
H296-H296-H296-HT [12] = experiment: ELISA; H296-H296-H296-HT coated at 2 ug/mL; HRP-labeled FNH3-8, ABTS; blank subtracted
H296-H296-H296-HT [13] = experiment: ELISA; H296-H296-H296-HT coated at 4 ug/mL; HRP-labeled FNH3-8, ABTS; blank subtracted
H296-H296-H296-HT [14] = experiment: ELISA; H296-H296-H296-HT coated at 5 ug/mL; HRP-labeled FNH3-8, ABTS; blank subtracted
H296-H296-H296-HT [15] = experiment: ELISA; H296-H296-H296-HT coated at 10 ug/mL; HRP-labeled FNH3-8, ABTS; blank subtracted
[16] = molecular target: H-296, a polypeptide comprising a heparin binding domain and a CS-1 domain of fibronectin (Homo sapiens (Human)) (UniProt P02751); experiment: ELISA; H-296 coated at 25 ug/mL in 0.2 M acetate buffer pH 5.0; HRP-labeled FNH3-8, ABTS
[17] = molecular target: H-296, a polypeptide comprising a heparin binding domain and a CS-1 domain of fibronectin (Homo sapiens (Human)) (UniProt P02751); experiment: ELISA; H-296 coated at 25 ug/mL in 0.2 M acetate buffer pH 5.6; HRP-labeled FNH3-8, ABTS
[18] = molecular target: H-296, a polypeptide comprising a heparin binding domain and a CS-1 domain of fibronectin (Homo sapiens (Human)) (UniProt P02751); experiment: ELISA; H-296 coated at 50 ug/mL in 0.2 M acetate buffer pH 3.8; HRP-labeled FNH3-8, ABTS
[19] = molecular target: H-296, a polypeptide comprising a heparin binding domain and a CS-1 domain of fibronectin (Homo sapiens (Human)) (UniProt P02751); experiment: ELISA; H-296 coated at 50 ug/mL in 0.2 M acetate buffer pH 4.4; HRP-labeled FNH3-8, ABTS
[20] = molecular target: H-296, a polypeptide comprising a heparin binding domain and a CS-1 domain of fibronectin (Homo sapiens (Human)) (UniProt P02751); experiment: ELISA; H-296 coated at 50 ug/mL in 0.2 M acetate buffer pH 5.0; HRP-labeled FNH3-8, ABTS
[21] = molecular target: H-296, a polypeptide comprising a heparin binding domain and a CS-1 domain of fibronectin (Homo sapiens (Human)) (UniProt P02751); experiment: ELISA; H-296 coated at 25 ug/mL in 0.2 M phosphate buffer pH 7.4; HRP-labeled FNH3-8, ABTS
[22] = molecular target: H-296, a polypeptide comprising a heparin binding domain and a CS-1 domain of fibronectin (Homo sapiens (Human)) (UniProt P02751); experiment: ELISA; H-296 coated at 50 ug/mL in 0.2 M phosphate buffer pH 7.4; HRP-labeled FNH3-8, ABTS
[23] = molecular target: H-296, a polypeptide comprising a heparin binding domain and a CS-1 domain of fibronectin (Homo sapiens (Human)) (UniProt P02751); experiment: ELISA; H-296 coated at 50 ug/mL in 0.2 M phosphate buffer pH 8.0; HRP-labeled FNH3-8, ABTS
[24] = molecular target: H-296, a polypeptide comprising a heparin binding domain and a CS-1 domain of fibronectin (Homo sapiens (Human)) (UniProt P02751); experiment: ELISA as in Example 34; H-296 coated at 100 ug/mL in pH 5.6 acetate buffer; HRP-labeled FNH3-8
[25] = molecular target: H-296, a polypeptide comprising a heparin binding domain and a CS-1 domain of fibronectin (Homo sapiens (Human)) (UniProt P02751); experiment: ELISA as in Example 34; H-296 coated at 12.5 ug/mL in pH 5.6 acetate buffer; HRP-labeled FNH3-8
[26] = molecular target: H-296, a polypeptide comprising a heparin binding domain and a CS-1 domain of fibronectin (Homo sapiens (Human)) (UniProt P02751); experiment: ELISA as in Example 34; H-296 coated at 6.25 ug/mL in pH 5.6 acetate buffer; HRP-labeled FNH3-8

H296-H296-H296-HT, sequence (chain, as listed by the source limits assumed): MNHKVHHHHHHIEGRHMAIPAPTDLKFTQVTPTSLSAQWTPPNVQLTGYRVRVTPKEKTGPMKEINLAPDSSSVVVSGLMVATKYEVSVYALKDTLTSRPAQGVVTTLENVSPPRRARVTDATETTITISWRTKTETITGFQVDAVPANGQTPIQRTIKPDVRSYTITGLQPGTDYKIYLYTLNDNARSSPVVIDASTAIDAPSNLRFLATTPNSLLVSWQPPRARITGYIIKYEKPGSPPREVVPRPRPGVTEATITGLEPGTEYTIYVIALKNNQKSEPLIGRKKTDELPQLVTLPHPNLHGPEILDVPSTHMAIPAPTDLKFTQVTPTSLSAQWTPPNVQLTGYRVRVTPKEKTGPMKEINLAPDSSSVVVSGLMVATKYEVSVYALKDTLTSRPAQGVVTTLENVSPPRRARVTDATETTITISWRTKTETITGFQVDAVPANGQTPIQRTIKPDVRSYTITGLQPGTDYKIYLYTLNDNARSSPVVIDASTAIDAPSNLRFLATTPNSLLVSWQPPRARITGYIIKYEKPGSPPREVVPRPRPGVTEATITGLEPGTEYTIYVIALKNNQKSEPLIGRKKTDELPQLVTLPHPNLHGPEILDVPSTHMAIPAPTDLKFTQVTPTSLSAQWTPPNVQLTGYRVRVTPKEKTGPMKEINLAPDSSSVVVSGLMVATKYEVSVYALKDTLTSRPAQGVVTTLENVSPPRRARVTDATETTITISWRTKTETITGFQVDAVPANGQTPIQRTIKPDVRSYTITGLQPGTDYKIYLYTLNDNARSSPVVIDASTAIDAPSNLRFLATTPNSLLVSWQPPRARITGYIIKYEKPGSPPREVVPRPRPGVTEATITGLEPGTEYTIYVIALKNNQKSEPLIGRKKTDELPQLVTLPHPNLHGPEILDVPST
H296-H296-HT, sequence (chain, as listed by the source limits assumed): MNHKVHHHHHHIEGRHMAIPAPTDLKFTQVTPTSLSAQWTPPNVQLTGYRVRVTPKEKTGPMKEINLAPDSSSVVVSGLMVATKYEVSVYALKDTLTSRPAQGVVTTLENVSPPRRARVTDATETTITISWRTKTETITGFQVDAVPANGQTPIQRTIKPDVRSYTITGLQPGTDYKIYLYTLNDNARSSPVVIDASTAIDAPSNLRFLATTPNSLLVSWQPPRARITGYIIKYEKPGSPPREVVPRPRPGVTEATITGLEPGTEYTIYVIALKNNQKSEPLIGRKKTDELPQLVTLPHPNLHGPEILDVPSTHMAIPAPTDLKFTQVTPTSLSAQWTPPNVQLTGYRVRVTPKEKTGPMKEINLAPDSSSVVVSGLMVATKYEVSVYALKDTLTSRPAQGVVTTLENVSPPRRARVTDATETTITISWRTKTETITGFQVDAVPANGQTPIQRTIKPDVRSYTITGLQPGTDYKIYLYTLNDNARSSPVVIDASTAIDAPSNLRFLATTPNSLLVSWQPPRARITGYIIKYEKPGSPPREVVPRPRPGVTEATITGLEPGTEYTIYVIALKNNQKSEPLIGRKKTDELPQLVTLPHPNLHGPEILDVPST
H271-H296, sequence (chain, as listed by the source limits assumed): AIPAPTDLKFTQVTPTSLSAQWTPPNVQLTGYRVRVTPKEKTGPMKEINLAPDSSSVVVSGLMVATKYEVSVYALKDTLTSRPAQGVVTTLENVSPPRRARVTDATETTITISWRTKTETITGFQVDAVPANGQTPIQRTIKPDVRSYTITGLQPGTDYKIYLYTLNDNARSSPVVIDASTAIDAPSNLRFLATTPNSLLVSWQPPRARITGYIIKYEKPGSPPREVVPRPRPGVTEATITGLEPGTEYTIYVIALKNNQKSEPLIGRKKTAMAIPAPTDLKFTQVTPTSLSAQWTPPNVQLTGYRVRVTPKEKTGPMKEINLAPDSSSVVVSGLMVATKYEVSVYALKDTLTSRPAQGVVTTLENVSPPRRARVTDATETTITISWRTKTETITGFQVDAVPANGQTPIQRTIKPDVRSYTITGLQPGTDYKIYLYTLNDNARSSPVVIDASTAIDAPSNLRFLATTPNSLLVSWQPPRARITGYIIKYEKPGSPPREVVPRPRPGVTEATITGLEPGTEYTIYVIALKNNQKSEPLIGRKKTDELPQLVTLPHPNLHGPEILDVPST
H296-H271, sequence (chain, as listed by the source limits assumed): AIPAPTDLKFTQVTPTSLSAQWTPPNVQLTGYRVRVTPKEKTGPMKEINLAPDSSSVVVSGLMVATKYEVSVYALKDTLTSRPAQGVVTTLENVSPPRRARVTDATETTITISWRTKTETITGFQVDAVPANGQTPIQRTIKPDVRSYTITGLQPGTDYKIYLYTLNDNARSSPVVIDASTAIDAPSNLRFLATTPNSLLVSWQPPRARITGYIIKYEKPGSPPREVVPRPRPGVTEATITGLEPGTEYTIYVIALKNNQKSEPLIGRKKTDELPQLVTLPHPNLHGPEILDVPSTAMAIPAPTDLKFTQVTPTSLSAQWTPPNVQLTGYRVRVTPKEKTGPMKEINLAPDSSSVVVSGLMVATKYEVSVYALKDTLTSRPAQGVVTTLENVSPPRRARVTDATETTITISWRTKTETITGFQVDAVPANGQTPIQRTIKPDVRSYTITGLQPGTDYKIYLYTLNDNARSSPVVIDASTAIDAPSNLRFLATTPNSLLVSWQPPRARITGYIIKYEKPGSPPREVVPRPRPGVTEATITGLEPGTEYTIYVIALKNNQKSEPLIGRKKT

## FNH3-8 antibody (manufactured by TAKARA BIO INC.) labeled with HRP
[1]
  405 nm (Found Value - Blank): 0.859
[2]
  405 nm (Found Value - Blank): 0.564
H296-H271 [3]
  405 nm (Found Value - Blank): 0.56
H271-H296 [4]
  405 nm (Found Value - Blank): 0.605
H271-H296 [5]
  405 nm (Found Value - Blank): 0.61
H296-H271 [6]
  405 nm (Found Value - Blank): 0.609
H296-H296-HT [7]
  405 nm (Found Value - Blank): 0.186
H296-H296-HT [8]
  405 nm (Found Value - Blank): 0.742
H296-H296-HT [9]
  405 nm (Found Value - Blank): 0.843
[10]
  absorbance at 405 nm: 0.732
H296-H296-H296-HT [11]
  405 nm (Found Value - Blank): 0.261
H296-H296-H296-HT [12]
  405 nm (Found Value - Blank): 0.545
H296-H296-H296-HT [13]
  405 nm (Found Value - Blank): 0.81
H296-H296-H296-HT [14]
  405 nm (Found Value - Blank): 0.87
H296-H296-H296-HT [15]
  405 nm (Found Value - Blank): 0.924
[16]
  absorbance at 405 nm: 0.392
[17]
  absorbance at 405 nm: 0.475
[18]
  absorbance at 405 nm: 0.213
[19]
  absorbance at 405 nm: 0.379
[20]
  absorbance at 405 nm: 0.451
[21]
  absorbance at 405 nm: 0.08
[22]
  absorbance at 405 nm: 0.169
[23]
  absorbance at 405 nm: 0.174
[24]
  absorbance at 405 nm: 0.499
[25]
  absorbance at 405 nm: 0.277
[26]
  absorbance at 405 nm: 0.221
